Changes are numbered by the printed parent chain.

For assay [1], the target named is T1, hMSLN-His-Avi (human, UniProt Q13421 296-598, single biotin on the Avi tag in the biotinylated form).
T1 construct: Monomeric; also called human MSLN-His-Avi; hMSLN-Avi-His
Kind of assay: ratio of SPR KDs.

In assay [2] the target is human CD137 on primary human CD8+ T cells (human, UniProt Q07011 24-255). Kind of assay: cell-based or functional assay.
In assay [3] the target is T2, endogenous cell surface human MSLN (human, UniProt Q13421 296-598).
T2 construct: whole, on cells; The cell line is named under assay; also called cell-surface MSLN on NCI-H226, OVCAR-3 and AsPC-1 cells
Kind of assay: flow cytometry, NCI-H226 cells. On the procedure: (§1) To confirm binding to cell surface MSLN, mAb² listed in Table 9 were analysed for binding to endogenous cell surface MSLN on the human lung cancer cell line NCI-H226. In addition, and because MSLN can be found in blood in a shed soluble form, there is a risk that this circulating MSLN might affect exposure and ultimately potency of our mAb². To confirm that presence of soluble MSLN has minimal impact, additional binding experiments to NCI-H226 cells were performed in the presence of 20 nM soluble MSLN which is 10-20 times the level of soluble MSLN found to be of diagnostic value for defining malignant mesothelioma and lung cancer patients as MSLN positive (Cui et al., 2014). Briefly, NCI-H226 cells (ATCC CRL-5826) were harvested from T175 cell culture flasks using Accutase (Gibco, A11105-01).
(§2) In both cases, cells were centrifuged at 1200 rpm for 3 min and resuspended in ice cold FACS buffer made up of DPBS (Life Technologies, 14190169) and 1% BSA (Sigma-Aldrich, A7906) at 2×10⁶ cells/ml and 50 μl per well was seeded in a 96-well V-bottom plate (Costar, 3894). All antibodies tested were diluted in FACS buffer in 120 μl at a concentration range of 0.01-200 nM (4-fold dilutions). The NCI-H226 cells were then centrifuged, supernatant removed and cells resuspended in 100 μl of each mAb dilution and incubated at 4° C. for 45 min. Cells were washed twice by centrifugation with 150 μl FACS buffer, resuspended in 100 μl containing goat anti-human IgG (γ-chain specific) F(ab')2 fragment-R-Phycoerythrin antibody (Sigma, P8047) diluted 1:1000 in FACS buffer and incubated at 4° C. for 45 min. The cells were washed once with 150 μl FACS buffer and then with 150 μl DPBS, resuspended in 150 μl DPBS containing DAPI (Biotium, 40043) at 1:10.000 and read on the BDCantoII or iQue (Intellicyt).

Assay [4] deals with T2, endogenous cell surface human MSLN. Kind of assay: flow cytometry, NCI-H226 cells + 20 nM soluble MSLN. The protocol:
as §1, §2

Assay [5] has as its target T1, hMSLN-His-Avi. Kind of assay: SPR, hMSLN-His-Avi immobilised ~100 RU, mAb2 injected.
Assay [6] has as its target T3, cMSLN-His-Avi (cynomolgus, single biotin on the Avi tag in the biotinylated form).
T3 construct: Monomeric; also called cyno MSLN-His-Avi; cMSLN-Avi-His
T3 chain: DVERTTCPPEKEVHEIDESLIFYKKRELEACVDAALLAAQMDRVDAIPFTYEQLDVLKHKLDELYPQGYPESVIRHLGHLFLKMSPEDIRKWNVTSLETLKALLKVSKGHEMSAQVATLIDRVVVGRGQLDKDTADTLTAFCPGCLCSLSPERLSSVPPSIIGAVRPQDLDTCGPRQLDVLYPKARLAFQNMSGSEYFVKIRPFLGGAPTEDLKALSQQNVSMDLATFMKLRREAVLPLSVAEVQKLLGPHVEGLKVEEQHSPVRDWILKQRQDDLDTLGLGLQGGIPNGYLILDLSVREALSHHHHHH
Put plainly: SPR, mAb2 captured on Protein G, cMSLN-His-Avi in solution. On the procedure:
(§3) The association time was 5 min and the dissociation time was 5 min. Running buffer was HBS-EP (GE Healthcare BR100188). Flow cells were regenerated by injecting Glycine-HCl pH2.1 at a flow rate of 30 μl/min for 15 seconds. The data was analysed as described in Example 7.1.

For assay [7], the target named is T1, hMSLN-His-Avi. Kind of assay: SPR, mAb2 captured on Protein G, hMSLN-His-Avi in solution. The protocol: as §3
A further assay addresses T4, hCD137-mFc-Avi (human; mouse, UniProt Q07011 24-186, one biotin on each Avi tag in the biotinylated form).
T4 construct: also called human dimeric CD137; human CD137-mFc-Avi
Put plainly: SPR, mAb2 captured by anti-human Fab, hCD137-mFc-Avi in solution. The protocol:
A Biacore CM5 chip was coated with anti-human Fab using a Human Fab Capture Kit (GE Healthcare 28958325) according to manufacturer's conditions, to a surface density of approximately 9000 RU. […] The association time was 5 min and the dissociation time was 5 min. Running buffer was HBS-EP. Flow cells were regenerated by injecting two repeat injections of 10 mM glycine-HCl at pH 2.1 at a flow rate of 30 μl/min for 30 seconds. Data analysis was performed as described in earlier examples (see e.g. Example 7.1).

Assay [8] has as its target T5, mMSLN-His-Avi (mouse, UniProt Q61468 298-600, single biotin on the Avi tag in the biotinylated form).
T5 construct: also called mouse MSLN-His-Avi
T5 sequence: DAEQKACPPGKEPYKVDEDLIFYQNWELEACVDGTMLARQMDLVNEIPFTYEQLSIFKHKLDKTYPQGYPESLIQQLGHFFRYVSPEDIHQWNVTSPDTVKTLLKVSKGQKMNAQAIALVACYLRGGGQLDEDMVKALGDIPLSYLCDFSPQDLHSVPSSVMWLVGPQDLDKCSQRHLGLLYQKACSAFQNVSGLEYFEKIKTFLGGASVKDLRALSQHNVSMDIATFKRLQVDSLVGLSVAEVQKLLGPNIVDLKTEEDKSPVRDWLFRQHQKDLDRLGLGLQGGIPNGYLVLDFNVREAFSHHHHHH
Kind of assay: ratio of SPR KDs. On the procedure:
(§4) To determine the affinity for soluble MSLN the mAb^2 was captured via an anti-human Fc. Briefly, 25 µg/ml anti-human IgG (Fc) antibody (GE Healthcare, Human Antibody Capture Kit, BR100839) was immobilised on a Biacore sensor chip CM5 (GE Healthcare, BR100530) achieving a final response of approximately 750 RU. The mAb^2 molecule, diluted in HBS-EP buffer (GE Healthcare, BR100188) at 50 nM, was injected individually at 30 µl/min to achieve a response of approximately 100 RU. The recombinant mMSLN-His-Avi antigen, diluted in HBS-EP buffer, was injected at a concentration range of 243 nM to 0.11 nM with 3-fold dilutions for 5 minutes at 70 µl/min and then allowed to dissociate in buffer for 5 minutes. Regeneration was achieved by injecting 3 M magnesium chloride (GE Healthcare, Human Antibody Capture Kit, BR100839) for 30 seconds at a rate of 30 µl/min.

Assay [9] deals with T5, mMSLN-His-Avi. Kind of assay: SPR, mMSLN-His-Avi immobilised at 50 RU.
The target in assay [10] is T5, mMSLN-His-Avi. Kind of assay: SPR, mAb2 captured by anti-human Fc, mMSLN-His-Avi in solution. On the procedure: as §4
Assay [11] has as its target T3, cMSLN-His-Avi. Kind of assay: SPR, mAb2 captured on Protein G, MSLN in solution. On the procedure: as §3

T2 sequence (Q13421 other isoform, or with tags, fused parts or gaps limits assumed): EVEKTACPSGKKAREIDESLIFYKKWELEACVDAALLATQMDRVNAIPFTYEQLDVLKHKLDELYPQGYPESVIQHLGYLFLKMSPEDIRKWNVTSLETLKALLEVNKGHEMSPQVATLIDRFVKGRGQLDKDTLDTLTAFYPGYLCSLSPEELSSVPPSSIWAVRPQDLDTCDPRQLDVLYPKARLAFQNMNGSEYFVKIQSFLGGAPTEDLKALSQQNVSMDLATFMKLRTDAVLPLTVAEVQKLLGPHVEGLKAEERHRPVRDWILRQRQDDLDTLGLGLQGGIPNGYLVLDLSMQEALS
Chain of human CD137 on primary human CD8+ T cells (Q07011 24-255): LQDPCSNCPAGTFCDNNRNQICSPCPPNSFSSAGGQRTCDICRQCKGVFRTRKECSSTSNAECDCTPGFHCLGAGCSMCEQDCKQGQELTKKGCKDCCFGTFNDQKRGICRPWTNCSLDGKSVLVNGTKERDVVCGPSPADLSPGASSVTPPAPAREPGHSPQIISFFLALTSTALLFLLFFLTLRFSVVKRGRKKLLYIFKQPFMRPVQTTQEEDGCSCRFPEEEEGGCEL
T1 sequence (Q13421 other isoform, or with tags, fused parts or gaps): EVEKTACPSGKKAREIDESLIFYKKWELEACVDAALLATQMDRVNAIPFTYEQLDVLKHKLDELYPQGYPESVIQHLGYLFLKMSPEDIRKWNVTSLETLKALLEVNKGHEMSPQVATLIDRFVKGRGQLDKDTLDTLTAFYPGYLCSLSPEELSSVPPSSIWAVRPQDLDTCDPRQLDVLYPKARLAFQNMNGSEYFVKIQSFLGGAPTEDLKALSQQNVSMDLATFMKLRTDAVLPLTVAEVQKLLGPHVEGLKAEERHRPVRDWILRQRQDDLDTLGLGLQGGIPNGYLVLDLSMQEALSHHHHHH
T4 sequence (Q07011 24-186): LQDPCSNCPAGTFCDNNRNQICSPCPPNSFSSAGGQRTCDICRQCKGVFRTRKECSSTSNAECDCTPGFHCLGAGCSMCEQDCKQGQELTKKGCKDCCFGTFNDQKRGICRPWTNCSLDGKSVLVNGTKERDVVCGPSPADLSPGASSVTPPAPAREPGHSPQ

B1: FS22-172-003-AA/FS28-024-052 (bispecific antibody, human IgG1, kappa, L234A L235A, V domains shown)
VH: EVQLLESGGGLVQPGGSLRLSCAASGFTLSYSSMSWVRQAPGKGLEWVSFITPSTGYTHYADSVKGRFTISRDNSKNTLYLQMNSLRAEDTAVYYCARRALLFDYWGQGTLVTVSS
VL: EIVLTQSPGTLSLSPGERATLSCRASQSVSSSYLAWYQQKPGQAPRLLIYGASSRATGIPDRFSGSGSGTDFTLTISRLEPEDFAVYYCQQASSYPLTFGQGTKVEIKR
notes: IgG1 mAb^2 with LALA
On to B1, for which, in the assay with hMSLN-His-Avi [1], the “KD ratio in solution/immobilised human MSLN” value is 85. For the same molecule, in [2], the “Emax (IL-2 pg/ml), NCI-H226 co-culture, Donor A” value was determined as 1070 pg/mL; the “Emax (IL-2 pg/ml), NCI-H226 co-culture, Donor B” value worked out at 1690 pg/mL; the “IL-2 release EC50, NCI-H226 co-culture, Donor A” value stood at 0.04 nM; the “IL-2 release EC50, NCI-H226 co-culture, Donor B” value was found to be 0.05 nM. Also, in [3], the half-maximal effective concentration (EC50) worked out at 0.884 nM and the “Emax (MFI)” value amounted to 752000 MFI. In addition, in [4], the EC50 worked out at 3.64 nM and the “Emax (MFI)” value is 799000 MFI. Further, the Kd with hMSLN-His-Avi [5] worked out at 0.39 nM. The dissociation constant (Kd) in the assay with cMSLN-His-Avi [6] amounted to 239 nM. The molecule further yielded an equilibrium dissociation constant (Kd) with hMSLN-His-Avi [7] of 33.1 nM. The dissociation constant (Kd) in the assay with hCD137-mFc-Avi is 1.51 nM.

B2: FS22m-063-AA/FS28m-228 (bispecific antibody, human IgG1, kappa, L234A L235A, V domains shown)
VH: EVQLLESGGGLVQPGGSLRLSCAASGFTFSTYFMVWVRQAPGKGLEWVSMISPKSSNTYYADSVKGRFTISRDNSKNTLYLQMNSLRAEDTAVYYCARWFTPARFDYWGQGTLVTVSS
VL: B1 VL with A92P, S93F, S94P, Y95F, P96S, L97F
notes: IgG1 mAb^2 with LALA; also called anti-mouse CD137/MSLN mAb^2
Turning to B2, the “ratio of KD in solution/immobilised” value with mMSLN-His-Avi [8] was 31.9. Besides, the Kd with mMSLN-His-Avi [9] stood at 7.9 nM; in the assay with mMSLN-His-Avi [10], 252 nM.

B3: FS22-172-003-AA/FS28-024-060 (bispecific antibody, human IgG1, kappa, L234A L235A, V domains shown)
VH: B1 VH with L102W
VL: B1 VL
notes: IgG1 mAb^2 with LALA
For B3, the “KD ratio in solution/immobilised human MSLN” value with hMSLN-His-Avi [1] stood at 33. In assay [2], the “Emax (IL-2 pg/ml), NCI-H226 co-culture, Donor A” value stood at 1400 pg/mL; the “Emax (IL-2 pg/ml), NCI-H226 co-culture, Donor B” value came out at 1940 pg/mL; the “IL-2 release EC50, NCI-H226 co-culture, Donor A” value was determined as 0.04 nM; the “IL-2 release EC50, NCI-H226 co-culture, Donor B” value came to 0.06 nM. For the same molecule, in assay [3], the EC50 came to 0.695 nM and the “Emax (MFI)” value is 840000 MFI. The “fold less cross reactive compared to human MSLN” value in the assay with cMSLN-His-Avi [11] is 54 fold. In addition, in assay [4], the EC50 is 4.69 nM and the “Emax (MFI)” value worked out at 930000 MFI. Besides, binding in the assay with hMSLN-His-Avi [5] was characterised by a dissociation constant (Kd) of 0.13 nM. For the same molecule, the dissociation constant (Kd) with cMSLN-His-Avi [6] was found to be 230 nM. Further, the dissociation constant (Kd) in the assay with hMSLN-His-Avi [7] came to 4.27 nM.

B4: FS22m-063-AA/FS28m-228-010 (bispecific antibody, human IgG1, kappa, L234A L235A, V domains shown)
VH: B2 VH with W99Y, F100H, T101I, P102S, A103P
VL: B1 VL with A92P, S93F, S94P, Y95F, P96S, L97F
notes: IgG1 mAb^2 with LALA
Turning to B4, in the assay with mMSLN-His-Avi [8], the “ratio of KD in solution/immobilised” value was determined as 23.2. The Kd in the assay with mMSLN-His-Avi [9] was 2.6 nM; with mMSLN-His-Avi [10], 60.2 nM.
